± gives the uncertainty stated by the source.
B1: SWI/SNF complex subunit SMARCC2, residues 599 to 641; numbered along this chain, Q8TAQ2 (parent)
chain: REWTEQETLLLLEALEMYKDDWNKVSEHVGSRTQDECILHFLR

Variants of: B1
Assay: abundance fitness (aPCA) (normalised: wild type 0, dead -1); higher = more abundant; growth selection in yeast, the domain comes from the species named
Conditions: Homo sapiens

Abundance fitness: each site, then its substitutions
T33: L -0.019 ± 0.075 | E -0.263 ± 0.23 | D 0.079 ± 0.23 | F -0.684 ± 0.37 | Y -0.305 ± 0.17 | K 0.042 ± 0.2 | C -0.064 ± 0.13 | P -0.17 ± 0.12 | G 0 ± 0.087 | H -0.214 ± 0.13 | I -0.721 ± 0.35 | A 0.045 ± 0.17 | R 0.123 ± 0.077 | N 0.125 ± 0.09
S26: Y -0.252 ± 0.12 | G 0.084 ± 0.069 | I -0.449 ± 0.16 | N -0.62 ± 0.12 | M 0.199 ± 0.14 | L -0.27 ± 0.087 | V 0.071 ± 0.064 | K 0.211 ± 0.089 | H 0.095 ± 0.065 | Q -0.449 ± 0.15 | C -0.07 ± 0.088 | P -0.444 ± 0.12 | A 0.303 ± 0.087 | W -0.517 ± 0.1 | E 0.081 ± 0.12 | T 0.115 ± 0.08 | R 0.219 ± 0.066 | F -0.709 ± 0.12
G30: E 0.092 ± 0.1 | Q -0.668 ± 0.13 | W -0.832 ± 0.23 | M -0.341 ± 0.12 | R -0.211 ± 0.088 | K -0.011 ± 0.095 | C -0.064 ± 0.12 | A -0.057 ± 0.085 | F -0.325 ± 0.11 | S -0.143 ± 0.084 | D -0.07 ± 0.14 | N -0.164 ± 0.1 | I -0.147 ± 0.12 | L -0.546 ± 0.076 | H -0.711 ± 0.12 | Y -0.143 ± 0.25 | T -0.031 ± 0.078
N23: I -0.121 ± 0.14 | T 0.033 ± 0.069 | P 0.17 ± 0.059 | V 0.059 ± 0.067 | G 0.112 ± 0.059 | W -0.131 ± 0.12 | L 0.026 ± 0.067 | D 0.109 ± 0.11 | A 0.204 ± 0.064 | M 0.025 ± 0.13 | C 0.123 ± 0.068 | R 0.069 ± 0.056 | S 0.064 ± 0.065 | F 0.046 ± 0.084 | H -0.009 ± 0.077 | E 0.091 ± 0.17 | Q -0.081 ± 0.097 | K 0.037 ± 0.072 | Y -0.285 ± 0.086
D21: Y -0.541 ± 0.33 | T -0.336 ± 0.15 | W -0.493 ± 0.27 | V -0.496 ± 0.09
W22: K -0.367 ± 0.15 | F -0.389 ± 0.12 | R -0.833 ± 0.12 | T -0.433 ± 0.11 | S -0.91 ± 0.17 | M -0.412 ± 0.11 | C -0.792 ± 0.13 | G -0.615 ± 0.1 | H -0.231 ± 0.18 | A -0.791 ± 0.11 | N -0.759 ± 0.15 | D -0.339 ± 0.18 | Q -0.887 ± 0.24 | V -0.529 ± 0.086 | I -0.535 ± 0.45 | Y -0.115 ± 0.32
E36: W -0.855 ± 0.19 | Q 0.08 ± 0.33 | K -0.507 ± 0.29 | V -1.15 ± 0.2 | H -0.196 ± 0.19 | M -0.897 ± 0.23 | G -0.844 ± 0.23 | P -0.783 ± 0.29 | D -0.003 ± 0.12 | R -0.873 ± 0.15 | L -1.02 ± 0.34 | A -0.446 ± 0.12 | F -0.523 ± 0.24
L42: K 0.895 ± 0.13 | F 0.139 ± 0.067 | M 0.167 ± 0.13 | G 0.447 ± 0.065 | A 0.334 ± 0.078 | D 0.726 ± 0.088 | H 0.615 ± 0.16
L39: P -0.24 ± 0.12 | R 0.122 ± 0.066 | I -0.21 ± 0.31 | D 0.642 ± 0.34 | S 0.071 ± 0.093 | Y -0.108 ± 0.23 | F -0.024 ± 0.18 | A 0.154 ± 0.073 | W -0.29 ± 0.34 | E 0.335 ± 0.073 | Q 0.08 ± 0.28 | H 0.16 ± 0.1 | N 0.024 ± 0.12 | V -0.009 ± 0.075 | T 0.235 ± 0.067 | G 0.149 ± 0.079
K24: L 0.054 ± 0.065 | P -0.524 ± 0.092 | M 0.259 ± 0.1 | N -0.501 ± 0.21 | Q 0.046 ± 0.086 | H -0.139 ± 0.12 | C -0.148 ± 0.094 | R 0.064 ± 0.066 | E 0.154 ± 0.098 | A 0.124 ± 0.066 | D -0.366 ± 0.12 | F 0.058 ± 0.13 | T -0.005 ± 0.065 | V -0.389 ± 0.08 | W -0.351 ± 0.072 | S -0.081 ± 0.063
R32: N -0.909 ± 0.24 | C -0.432 ± 0.13 | G -0.727 ± 0.11 | S -1.07 ± 0.17 | W -0.583 ± 0.15 | H -0.374 ± 0.11 | T -0.49 ± 0.097 | A -0.456 ± 0.093 | K 0.207 ± 0.1 | Y -0.426 ± 0.18 | V -0.523 ± 0.13 | F -0.417 ± 0.33 | D -1.04 ± 0.3 | M -0.202 ± 0.15 | E -0.472 ± 0.26 | Q -0.313 ± 0.15 | P -1.36 ± 0.45
C37: W -0.924 ± 0.15 | N -0.67 ± 0.16 | R -0.697 ± 0.079 | P -0.708 ± 0.092 | Q -0.2 ± 0.2 | D -0.471 ± 0.22 | S -0.428 ± 0.094 | L -0.844 ± 0.14 | V -0.134 ± 0.087 | K -0.328 ± 0.22 | H -0.353 ± 0.45 | A -0.332 ± 0.094 | F -0.361 ± 0.31 | T -0.525 ± 0.17 | E -0.598 ± 0.44 | G -0.833 ± 0.15
D35: H 0.108 ± 0.1 | S 0.087 ± 0.072 | A 0.121 ± 0.084 | P 0.066 ± 0.071 | K 0.047 ± 0.34 | Q 0.378 ± 0.1 | F -0.284 ± 0.16 | T -0.213 ± 0.12 | R 0.027 ± 0.066 | G 0.046 ± 0.1 | V -0.556 ± 0.13 | M 0.008 ± 0.21 | Y -0.486 ± 0.16 | I -0.388 ± 0.17 | E -0.035 ± 0.15 | N 0.236 ± 0.22
F41: T 0.047 ± 0.079 | Q 0.375 ± 0.088 | M 0.059 ± 0.091 | G 0.417 ± 0.082 | I -0.299 ± 0.11 | D 0.344 ± 0.065 | S 0.324 ± 0.066 | R 0.501 ± 0.084 | H 0.442 ± 0.077 | L -0.487 ± 0.072 | P 0.43 ± 0.076 | N 0.581 ± 0.11 | C -0.425 ± 0.2 | V -0.452 ± 0.083 | E 0.354 ± 0.11 | Y 0.185 ± 0.17
I38: V -0.019 ± 0.11 | M 0.151 ± 0.07 | Q 0.098 ± 0.14 | A 0.149 ± 0.13 | W -0.24 ± 0.099 | L 0.12 ± 0.068 | C 0.203 ± 0.13 | S 0.224 ± 0.071 | N 0.274 ± 0.12 | P -0.367 ± 0.14 | R 0.428 ± 0.09 | T 0.26 ± 0.074 | G 0.401 ± 0.11 | Y 0.077 ± 0.092 | H 0.415 ± 0.061 | E 0.351 ± 0.19 | D -0.015 ± 0.1 | F 0.023 ± 0.097 | K 0.347 ± 0.079
V29: L -0.07 ± 0.083 | W -0.931 ± 0.21 | C -0.635 ± 0.2 | S -1.3 ± 0.37 | K -0.53 ± 0.26 | R -1.09 ± 0.17 | M 0.092 ± 0.16 | A -0.695 ± 0.17 | Q -0.548 ± 0.17 | G -0.835 ± 0.27 | F -0.668 ± 0.33 | P -0.865 ± 0.11 | E -0.711 ± 0.18 | H -0.931 ± 0.23 | D -0.714 ± 0.24 | T -0.297 ± 0.3
Q34: K 0.316 ± 0.13 | A -0.235 ± 0.1 | H 0.058 ± 0.1 | C 0.104 ± 0.088 | M -0.282 ± 0.16 | W -0.577 ± 0.17 | V -0.018 ± 0.07 | R 0.014 ± 0.068 | L -0.073 ± 0.073 | I -0.074 ± 0.078 | N 0.051 ± 0.093 | Y 0.03 ± 0.085 | S 0.056 ± 0.067 | P 0.02 ± 0.075 | T 0.185 ± 0.077 | F -0.029 ± 0.074 | D -0.048 ± 0.13
H40: P -0.589 ± 0.096 | S -0.383 ± 0.099 | N -0.343 ± 0.16 | A -0.081 ± 0.096 | M -0.148 ± 0.4 | Y 0.272 ± 0.08 | R 0.096 ± 0.075 | V -0.376 ± 0.17 | I -0.431 ± 0.1 | T -0.27 ± 0.099 | Q -0.052 ± 0.17 | D -0.173 ± 0.2 | W -0.139 ± 0.23 | G -0.178 ± 0.11 | L -0.41 ± 0.081
S31: A -0.019 ± 0.1 | G 0.054 ± 0.086 | N 0.057 ± 0.099 | H -0.085 ± 0.14 | W -0.024 ± 0.24 | M 0.042 ± 0.1 | R -0.219 ± 0.11 | F -0.411 ± 0.19 | V -0.218 ± 0.071 | Q 0.149 ± 0.24 | P -0.434 ± 0.14 | E 0.12 ± 0.34 | T 0.287 ± 0.078 | Y 0.015 ± 0.14 | D 0.06 ± 0.091 | L -0.49 ± 0.18
V25: W -0.522 ± 0.12 | R -0.331 ± 0.07 | P -0.823 ± 0.22 | C 0.316 ± 0.12 | S -0.528 ± 0.11 | Q -0.853 ± 0.24 | Y -0.798 ± 0.42 | I 0.235 ± 0.36 | G -0.755 ± 0.11 | M 0.026 ± 0.07 | N -0.275 ± 0.17 | H -0.578 ± 0.2 | D -0.478 ± 0.44 | F -0.349 ± 0.17
H28: P -0.86 ± 0.17 | R -0.294 ± 0.082 | A -0.381 ± 0.23 | T -0.256 ± 0.22 | W -0.138 ± 0.24 | Q -0.26 ± 0.26 | N -0.853 ± 0.27 | D -1.16 ± 0.23 | S -0.747 ± 0.13 | K -0.242 ± 0.18 | E -0.748 ± 0.41 | I -0.265 ± 0.1 | Y -0.225 ± 0.13 | G -0.341 ± 0.11 | F -0.401 ± 0.23 | M -0.341 ± 0.15 | C -0.376 ± 0.16 | L -0.433 ± 0.1 | V -0.322 ± 0.097
E27: P -0.677 ± 0.25 | R -0.022 ± 0.066 | T -0.146 ± 0.14 | N -0.042 ± 0.095 | Q -0.244 ± 0.15 | H -0.407 ± 0.18 | W -0.495 ± 0.12 | V -0.515 ± 0.12 | D -0.209 ± 0.14 | C -0.379 ± 0.092 | G -0.038 ± 0.092 | S -0.21 ± 0.12 | L -0.473 ± 0.095

— the Human Domainome abundance scans (Beltran et al. 2025)
